The nature of the series: yeast display, Sf9 membrane polyspecificity reagent, FACS + sequencing; frameworks hold sequencing errors. The essentials:
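Nanobodies from a synthetic yeast display library (Saccharomyces cerevisiae BJ5465), induced 36–48 hours with galactose, were stained 1 hour at 4 °C with 10% biotinylated, detergent-solubilized Sf9 membrane reagent, enriched on streptavidin microbeads, then FACS-sorted. Anti-HA (expression) and streptavidin (reagent binding) fluorescence set low and high (top ~1%) gates. Polyreactivity labels come from the gate of origin. Genes were colony-PCR amplified, MiSeq 2 × 250 sequenced and filtered by CDR length.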
Turning to “QVQLVESGGGLVQAGGSLRLSCAASGFTFGTNAMGWYSQAPGKERELVAAISGRVGSTYYADSVKGRFTISRDNAKNTVYFLMNSLKPEDTAVYYCAADTWKTWSPYLYYTYDSWGQGTQVTVSS”, the “polyreactivity (PSR sort gate)” value is “low polyreactivity”.

For “QVQLVESGGGLVQAGGSLRLSCAASGFTFGTYAMGWYRQAPGKERELVAAINGNGGSTYYADSVKGRFTISRDNAKNTVYLQMNSLKPEDTAVYYCAAARRSGSTRRDYWGQGTQVTVSS”, the “polyreactivity (PSR sort gate)” value was “high polyreactivity”.

Take “QVQLVESGGGLVQAGGSLRLSCAASGFTFGTYAMGWYRQAPGKERELVARITSGGRTNYADSVKGRFTISRDNAKNTVYLQMNSLKPEDTAVYYCNAVNGYYWGSRFDYWGQGTQVTVSS”: the “polyreactivity (PSR sort gate)” value is “high polyreactivity”.

With “QVQLVESGGGLVQAGGSLRLSCAASGFTFGVNAMGWYRQAPGKERELVAAISRSGGSTYYADSVKGRFTISRDNAKNTVYLEMNSLKPEDTAVYYCNKAYHRRDSEFGYWGQGTQVTVSS”, the “polyreactivity (PSR sort gate)” value is “high polyreactivity”.

“QVQLVESGGGLVQAGGSLRLSCAASGFTFGVYAMGWYRQAPGKERELVAAISRSSGRTYYADSVKGRFTISRDNAKNTVYLQMNSLKPEDTAVYYCAARGYTLSYVDMYYWGQGTQVTVSS”: the “polyreactivity (PSR sort gate)” value is recorded as “high polyreactivity”.

On to “QVQLVESGGGLVQAGGSLRLSCAASGFTFGVYAMGWYRQAPGKERELVAAISSTGGSTYYADSVKGRFRISRDNAKNTVYLQMKSLKPEDTAVYYCAADPYPEYIRYLPGVVYWGQGTQVTVSS”, for which the “polyreactivity (PSR sort gate)” value is listed as “low polyreactivity”.

As for “QVQLVESGGGLVQAGGSLRLSCAASGFTFGWYAMGWYRQAPGKERELVAAISWSGGSTYYADSVKGRFTISRDNAKKTVYLQMNSLKPEDTAVYYCAAYPAYGGDYWGQGTQVTVSS”, the “polyreactivity (PSR sort gate)” value is recorded as “high polyreactivity”.

For “QVQLVESGGGLVQAGGSLRLSCAASGFTFGWYDMGWYRQAPGKERELVASISWSGSSTYYADSVKGRFTISRDNAKNTVYLQLNSLKPEDTAVYYCNDVSVDYVNWYWYDYWGQGTQVTVSS”, the “polyreactivity (PSR sort gate)” value is reported as “high polyreactivity”.

As for “QVQLVESGGGLVQAGGSLRLSCAASGFTFGYNAMGWYRQAPGKERELVAVITQSGGRTYYADSVKGRFTISRDNAKNTVYLQMISLKPEDTAVYYCNKVPRVYGYVKGSDYWGQGTQVTVSS”, the “polyreactivity (PSR sort gate)” value is “high polyreactivity”.

Take “QVQLVESGGGLVQAGGSLRLSCAASGFTFGYYAMGWYRQAPGKERELVAAINWSGGRTYYADSVKGRFTISRDNAMNTVYLQMNRLKPEDTAVYYCAASSRTKRYYWGQGTQVTVSS”: the “polyreactivity (PSR sort gate)” value is on record as “high polyreactivity”.

In the case of “QVQLVESGGGLVQAGGSLRLSCAASGFTFGYYAMGWYRQAPGKERELVAAISSSGGSTYYADSVKGRFTLSRDNAKNTVYLQMNSLKPEDTAVYYCAVVVFSRVYRYFTSDYWGQGTQVTVSS”, the “polyreactivity (PSR sort gate)” value is “high polyreactivity”.

In the case of “QVQLVESGGGLVQAGGSLRLSCAASGFTFGYYAMGWYRQAPGKERELVAGISRGGRTNYADSVKGRFTISRDNAKNTVYLQMNRLIPEDTAVFYCAARVVLSPGGYGYWGQGTQVTVSS”, the “polyreactivity (PSR sort gate)” value is listed as “high polyreactivity”.

With “QVQLVESGGGLVQAGGSLRLSCAASGFTFGYYAMGWYRQATGKERELVATITGSGVRTYYADSLKGRFTISRDNAKNSVYLQMNSLKPEDTAVYYCNKVFSIPWQGVRFDYWGQGTQVTVSS”, the “polyreactivity (PSR sort gate)” value is given as “high polyreactivity”.

For “QVQLVESGGGLVQAGGSLRLSCAASGFTFGYYTMGWYRQAPGKERELVAAISSSGGRTYYADSVKGRFTISRDNAKNTVYLQMNSLKPEDTAVYYCAARARWAGLRYTRYYYWGQGTQVTVSS”, the “polyreactivity (PSR sort gate)” value is on record as “high polyreactivity”.

“QVQLVESGGGLVQAGGSLRLSCAASGFTFHLYAMGWYRQAPRKERELVAAISQSGDSTYYADTVKGRFTISRDNAKNTFYLQMNSLKPEDTAVYYFNADNDCVVWTYPFDFDYWGQGTQVTVSS”: the “polyreactivity (PSR sort gate)” value is reported as “low polyreactivity”.

“QVQLVESGGGLVQAGGSLRLSCAASGFTFHYNAMGWYRQAPGKEREFVAAISGSGDRTYYADSVKGRFTISRDNAKNTVYLQMNSLKPEDTAVYYCATSVRQNYFYSYDYWGQGTQVTVSS”: the “polyreactivity (PSR sort gate)” value is given as “high polyreactivity”.

With “QVQLVESGGGLVQAGGSLRLSCAASGFTFHYYAMGWYRPAPGKERELVAAISRGGGNTYYADSVKGRFTISRDNAKNTVYLQMNSLKPEDTAVYYCAADSKYRFSHGLDYWGQGTQVTVSS”, the “polyreactivity (PSR sort gate)” value was “high polyreactivity”.

Regarding “QVQLVESGGGLVQAGGSLRLSCAASGFTFHYYAMGWYRQAPGKERELVAAISWSSGRTYYADSVKGRFTISRDNAKNTVYLQMNSLKPEDTAVYYCAASSYNRRDYWGQGTQVTVSS”, the “polyreactivity (PSR sort gate)” value is reported as “high polyreactivity”.

As to “QVQLVESGGGLVQAGGSLRLSCAASGFTFIDYAMGWYRQAPGKERELVAAISKRGGSTYYADSVKGRFTISRDNAKNSVYLQMNSLKPEDTAVYYCNAKAYHQGYLTRDDYWGQGTQVTVSS”, the “polyreactivity (PSR sort gate)” value is given as “high polyreactivity”.

Consider “QVQLVESGGGLVQAGGSLRLSCAASGFTFIKYAMGWYRQAPGKEREFDATISWNGGNTYYADSVKGRFTISRDKAKNTVYLQMNSLKPEDTAVYYCAARVKYRTRGGTVVSYDYWGQGTQVTVSS”, for which the “polyreactivity (PSR sort gate)” value is “high polyreactivity”.

On to “QVQLVESGGGLVQAGGSLRLSCAASGFTFILYAMGWYRQAPGKERELVAAITTSGGRTYYADSVKGRFTISRDTAKNTVYLQMNSLKPEDTAVYYCNARTTPKERDYWGQGTQVTVSS”, for which the “polyreactivity (PSR sort gate)” value is reported as “high polyreactivity”.

Consider “QVQLVESGGGLVQAGGSLRLSCAASGFTFIPNAMGWYRQATGKERELVAAISTGGSTYYADSVKGRFTISRDNAKNTVSLQMNSLKPEDTAVYYCAAGILDLKLYFSSYDYWGQGTQVTVSS”, for which the “polyreactivity (PSR sort gate)” value is “low polyreactivity”.

With “QVQLVESGGGLVQAGGSLRLSCAASGFTFIPYAMGWYRQAPGKERELVASITYSGGRTYYADSVKGRFTISRDNAKNTVYLQMNSLKPEDTAVYYCNARSWGGYYHWGQGTQVTVSS”, the “polyreactivity (PSR sort gate)” value was “high polyreactivity”.

As for “QVQLVESGGGLVQAGGSLRLSCAASGFTFIQYDMGWYRLAPGKERELVAAISSSGGSTYYADSVKGRFTISRDNAKNTVYLQMNSLKPEDTAVYNCAADPWVRLEYDYWGQGTQVTVSS”, the “polyreactivity (PSR sort gate)” value was “low polyreactivity”.

Regarding “QVQLVESGGGLVQAGGSLRLSCAASGFTFIRYAMGCYRQAPGKERELVAAIRGTGTSTYYADSVKGRFTISRDNAKNTVYLQMNSLKPEDTAVYYCNKVAGRSPYTRYDYWGQGTQVTVSS”, the “polyreactivity (PSR sort gate)” value was “low polyreactivity”.

In the case of “QVQLVESGGGLVQAGGSLRLSCAASGFTFIRYAMGWYRQAPGKERELVASISNRGGRTYYADSVKGRFTISRDNAKNTVYLQMNSLKPEDTAVYYCAAGYSYAQYSYPFLSFAFGYWGQGTQVTVSS”, the “polyreactivity (PSR sort gate)” value is reported as “high polyreactivity”.

As for “QVQLVESGGGLVQAGGSLRLSCAASGFTFIRYAMGWYRQAPGKERELVATISRSGGRTYYADSVKGRFTISRDNAKNTVYLQMNSLKPEDTAVYYCNAEAIVLNGGGYWGQGTQVTVSS”, the “polyreactivity (PSR sort gate)” value was “high polyreactivity”.

Turning to “QVQLVESGGGLVQAGGSLRLSCAASGFTFISNAMGWYRQAPGKERELVAAISSSGGRTYYADSVKGRFTISRDNAKNTVYLQMNRLKPEDTAVYYCNADRSLLYSRKIEYDYWGQGTQVTVSS”, the “polyreactivity (PSR sort gate)” value was “low polyreactivity”.

In the case of “QVQLVESGGGLVQAGGSLRLSCAASGFTFIYYAMGWSRQAPGKERELVAAIRWSGGSTYYADSVKGRFTISRDNAKNTVYLQMNSLNPEDTAVYYCAKGGPHRGTGLNDYWGQGTQVTVSS”, the “polyreactivity (PSR sort gate)” value was “high polyreactivity”.

“QVQLVESGGGLVQAGGSLRLSCAASGFTFIYYAMGWYRQAPGKERELVAAISKRGGSTYYADSVKGRFTISRDTAKNTVYLQMYSLKPEDTAVYYCAPAFGQRRYDYWGQGTQVTVSS”: the “polyreactivity (PSR sort gate)” value is recorded as “high polyreactivity”.

For “QVQLVESGGGLVQAGGSLRLSCAASGFTFIYYAMGWYRQAPGTERELVAAISTSGDSTYYADSVKGRFTISRDNAKNSVYLQMNSLKPEDTAVYYCNADWYPYLHEYDYWGQGTQVTVSS”, the “polyreactivity (PSR sort gate)” value is on record as “low polyreactivity”.

“QVQLVESGGGLVQAGGSLRLSCAASGFTFIYYTMGWYRQAPGKEREFVAAISWGGSTYYADSVKGRFTISRDNAKITVYLLMNSLKPEDTAVYYCNAVSAVAYTRFVYWGQGTQVTVSS”: the “polyreactivity (PSR sort gate)” value is reported as “high polyreactivity”.

Turning to “QVQLVESGGGLVQAGGSLRLSCAASGFTFKAYAMGWYRQAPGKERELVAAISNSGGTTYYADSVKGRFTISRDNAKNTVYLQMNSLKPEDTAVYYCAAYQYYIPKMYYWGQGTQVTVSS”, the “polyreactivity (PSR sort gate)” value is “high polyreactivity”.

“QVQLVESGGGLVQAGGSLRLSCAASGFTFKGNAMGWYRQAPGKESELVAGISRSGRTYYADSVKGRFTISRDNAKNSVYLQMNSLKPEDTAVYYCNARNQGWASLPTMGYWGQGTQVTVSS”: the “polyreactivity (PSR sort gate)” value was “high polyreactivity”.

Consider “QVQLVESGGGLVQAGGSLRLSCAASGFTFKNYAMGWYRQAPGKEREFVATISSRGGSTYYADSVKGRFTISRDNAKNTVYLQMNSLKPEDPAVYYCAARYFSYGRSRQRHYYWGQGTQVTVSS”, for which the “polyreactivity (PSR sort gate)” value is recorded as “high polyreactivity”.

On to “QVQLVESGGGLVQAGGSLRLSCAASGFTFKNYAMGWYRQAPGKEREFVATISSRGGSTYYADSVKGRFTISRDNAKNTVYLQMNSLKPEDTAVYYCATSRYLSRSSEYGYWGQGTQVTVSS”, for which the “polyreactivity (PSR sort gate)” value was “high polyreactivity”.

“QVQLVESGGGLVQAGGSLRLSCAASGFTFKQNAMGWYRQAPGKERELVAAISSSGRTNYADSVKGRFTISRDNAKNTVYLQMNSLKPEDTAVYYCAAATYNAYGRRSRYYHGYNSWGQGTQVTVSS”: the “polyreactivity (PSR sort gate)” value is “high polyreactivity”.

Regarding “QVQLVESGGGLVQAGGSLRLSCAASGFTFKQNAMGWYRQAPGKERELVAAITRTGASTYYADSVKGRFTISRDNAKNTVYLQMNSLKPEDTAVYYCNAARRGSAYDYWGQGTQVTVSS”, the “polyreactivity (PSR sort gate)” value is recorded as “high polyreactivity”.

Regarding “QVQLVESGGGLVQAGGSLRLSCAASGFTFKQYGMGWYRQAPGKERELVASISYRGGSTHYADSVKGRFTISRDNAKNTVYLQMNSLKPEDTAVYYCAARVTSRTSIKGDYWGQGTQVTVSS”, the “polyreactivity (PSR sort gate)” value is reported as “low polyreactivity”.

With “QVQLVESGGGLVQAGGSLRLSCAASGFTFKRNAMGWYRQAPGKERELVAAISWSGSRTYADSVKGRFTISRDYAKNTVYVQMNSLKPEDTAVYYCAASPGRRRRPYASLIRYDYWGQGTQVTVSS”, the “polyreactivity (PSR sort gate)” value is listed as “high polyreactivity”.

Source of the values: the nanobody polyreactivity screen of Harvey et al. (2022).
